Source: patent publication US20250034594A1, “RNA-GUIDED GENOME RECOMBINEERING AT KILOBASE SCALE” (THE BOARD OF TRUSTEES OF THE LELAND STANFORD JUNIOR …, priority 2021, published 2025)

B1: Homolog_T1: RecT, Pantoea stewartii; SEQ ID NO: 115 (protein, listed as Pantoea stewartii)
chain: MSNQPPIASADLQKANTGKQVANKTPEQTLVGFMNQPAMKSQLAAALPRHMTADRMIRIVTTEIRKTPALATCDQSSFIGAVVQCSQLGLEPGSALGHAYLLPFGNGRSKSGQSNVQLIIGYRGMIDLARRSGQIVSLSARVVRADDEFSFEYGLDENLIHRPGENEDAPITHVYAVARLKDGGTQFEVMTVKQIEKVKAQSKASSNGPWVTHWEEMAKKTVIRRLFKYLPVSIEMQKAVILDEKAESDVDQDNASVLSAEYSVLDGSSEE
B2: Homolog_T4: RecT, Type-F symbiont of Plautia stali; SEQ ID NO: 121 (protein)
chain: MSNQPPIASADLQKTQQSKQVANKTPEQTLVGFMNQPAMKSQLAAALPRHMTADRMIRIVTTEIRKTPALATCDQSSFIGAVVQCSQLGLEPGSALGHAYLLPFGNGRSKSGQSNVQLIIGYRGMIDLARRSGQIVSLSARVVRADDEFSFEYGLDENLIHRPGDNEDAPITHVYAVARLKDGGTQFEVMTAKQVEKVKAQSKASSNGPWVTHWEEMAKKTVIRRLFKYLPVSIEMQKAVVLDEKAESDVDQDNASVLSAEYSVLEGDGGE
modifications: Type-F symbiont of Plautia stali
B3: Homolog_E5: RecE, Providencia stuartii; SEQ ID NO: 124 (protein, listed as Providencia stuartii)
chain: EGIYYNISNEDYHNGLGISKSQLDLINEMPAEYIWSKEAPVDEEKIKPLEIGTALHCLLLEPDEYHKRYKIGPDVNRRTNAGKEKEKEFFDMCEKEGITPITHDDNRKLMIMRDSALAHPIAKWCLEADGVSESSIYWTDKETDVLCRCRPDRIITAHNYIVDVKSSGDIEKFDYEYYNYRYHVQDAFYSDGYKEVTGITPTFLFLVVSTKIDCGKYPVRTYVMSEEAKSAGRTAYKHNLLTYAECLKTDEWAGIRTLSLPRWAKELRNE
B4: Homolog_T3: RecT, Pantoea dispersa; SEQ ID NO: 119 (protein, listed as Pantoea dispersa)
chain: MSNQPPLATADLQKTQQSNQVAKTPEQTLVGFMNQPAMKSQLAAALPRHMTADRMIRIVTTEIRKTPALAQCDQSSFIGAVVQCSQLGLEPGSALGHAYLLPFGNGRSKSGQSNVQLIIGYRGMIDLARRSGQIVSLSARVVRADDEFSFEYGLDENLIHRPGDNESAPITHVYAVARLKDGGTQFEVMTAKQVEKVKAQSKASSNGPWVTHWEEMAKKTVIRRLFKYLPVSIEMQKAVVLDEKAESDVDQDNASVLSAEYSVLESGTGE
B5: Homolog_T7: RecT, Providencia alcalifaciens DSM 30120; SEQ ID NO: 143 (protein, listed as Providencia alcalifaciens)
chain: MKAQLAAALPKHITSDRMIRIVSTEIRKTPSLANCDIQSFIGAVVQCSQLGLEPGNALGHAYLLPFGNGKSDNGKSNVQLIIGYRGMIDLARRSGQIISISARTVRQGDNFHFEYGLNENLTHIPEGNEDSPITHVYAVARLKDEGVQFEVMTYNQIEKVRDSSKAGKNGPWVTHWEEMAKKTVIRRLFKYLPVSIEMQKAVILDEKAEANIEQDHSAIFEAEFEEVDSNGN
B6: Homolog_E4: RecE, Type-F symbiont of Plautia stali; SEQ ID NO: 122 (protein)
chain: MQPGIYYDISNEDYHGGPGISKSQLDDIAISPAIYQWRKHAPVDEEKTAALDLGTALHCLLLEPDEFSKRFEIGPEVNRRTTAGKEKEKEFMERCEAEGVTPITHDDNRKLRLMRDSAMAHPIARWMLEAQGNAEASIYWNDRDTGVLSRCRPDKIITDFNWCVDVKSTADIIKFQKDFYSYRYHVQDAFYSDGYESHFDETPTFAFLAVSTSIDCGRYPVQVFIMDQQAKDAGRAEYKRNIHTFAECLSRNEWPGIATLSLPYWAKELRNE
modifications: Type-F symbiont of Plautia stali
B7: Homolog_E2: RecE, Pantoea brenneri; SEQ ID NO: 118 (protein, listed as Pantoea brenneri)
chain: MQPGIYYDISNEDYHRGAGISKSQLDDIAISPAIYQWRKHAPVDEEKTAALDLGTALHCLLLEPDEFSKRFQIGPEVNRRTTAGKEKEKEFIERCEAEGITPITHDDNRKLKLMRDSALAHPIARWMLEAQGNAEASIYWNDRDAGVLSRCRPDKIITEFNWCVDVKSTADIMKFQKDFYSYRYHVQDAFYSDGYESHFHETPTFAFLAVSTSIDCGRYPVQVFIMDQQAKDAGRAEYKRNIHTFAECLSRNEWPGIATLSLPFWAKELRNE
B8: Homolog_E6: RecE, Providencia sp. MGF014; SEQ ID NO: 126 (protein, listed as Providencia sp.)
chain: MKEGIYYNISNEDYHNGLGISKSQLDLINEMPAEYIWSKEAPVDEEKIKPLEIGTALHCLLLEPDEYHKRYKIGPDVNRRTNVGKEKEKEFFDMCEKEGITPITHDDNRKLMIMRDSALAHPIAKWCLEADGVSESSIYWTDKETDVLCRCRPDRIITAHNYIIDVKSSGDIEKFDYEYYNYRYHVQDAFYSDGYKEVTGITPTFLFLVVSTKIDCGKYPVRTYVMSEEAKSAGRTAYKHNLLTYAECLKTDEWAGIRTLSLPRWAKELRNE
B9: Homolog_T5: RecT, Providencia stuartii; SEQ ID NO: 123 (protein, listed as Providencia stuartii)
chain: MSNPPLAQADLQKTQGTEVKEKTKDQMLVELINKPSMKAQLAAALPRHMTPDRMIRIVTTEIRKTPALATCDMQSFVGAVVQCSQLGLEPGNALGHAYLLPFGNGKSKSGQSNVQLIIGYRGMIDLARRSGQIVSISARTVRQGDNFHFEYGLNENLTHVPGENEDSPITHVYAVARLKDGGVQFEVMTYNQIEKVRASSKAGQNGPWVSHWEEMAKKTVIRRLFKYLPVSIEMQKAVILDEKAEANIDQENATIFEGEYEEVGTDGK
B10: Homolog_E3: RecE, Pantoea dispersa; SEQ ID NO: 120 (protein, listed as Pantoea dispersa)
chain: MEPGIYYDISNEAYHSGPGISKSQLDDIARSPAIFQWRKDAPVDTEKTKALDLGTDFHCAVLEPERFADMYRVGPEVNRRTTAGKAEEKEFFEKCEKDGAVPITHDDARKVELMRGSVMAHPIAKQMIAAQGHAEASIYWHDESTGNLCRCRPDKFIPDWNWIVDVKTTADMKKFRREFYDLRYHVQDAFYTDGYAAQFGERPTFVFVVTSTTIDCGRYPTEVFFLDEETKAAGRSEYQSNLVTYSECLSRNEWPGIATLSLPHWAKELRNV
B11: Homolog_T2: RecT, Pantoea brenneri; SEQ ID NO: 117 (protein, listed as Pantoea brenneri)
chain: MSNQPPIASADLQKTQQSKQVANKTPEQTLVGFMNQPAMKSQLAAALPRHMTADRMIRIVTTEIRKTPQLAQCDQSSFIGAVVQCSQLGLEPGSALGHAYLLPFGNGRSKSGQSNVQLIIGYRGMIDLARRSGQIVSLSARVVRADDEFSFEYGLDENLVHRPGENEDAPITHVYAVARLKDGGTQFEVMTVKQVEKVKAQSKASSNGPWVTHWEEMAKKTVIRRLFKYLPVSIEMQKAVVLDEKAESDVDQDNASVLSAEYSVLESGDEATN
B12: Homolog_T6: RecT, Providencia sp. MGF014; SEQ ID NO: 125 (protein, listed as Providencia sp.)
chain: MSNPPLAQSDLQKTQGTEVKVKTKDQQLIQFINQPSMKAQLAAALPRHMTPDRMIRIVTTEIRKTPALATCDMQSFVGAVVQCSQLGLEPGNALGHAYLLPFGNGKAKSGQSNVQLIIGYRGMIDLARRSNQIISISARTVRQGDNFHFEYGLNEDLTHTPSENEDSPITHVYAVARLKDGGVQFEVMTYNQVEKVRASSKAGQNGPWVSHWEEMAKKTVIRRLFKYLPVSIEMQKAVVLDEKAEANVDQENATIFEGEYEEVGTDGN
B13: Homolog_E1: RecE, Pantoea stewartii; SEQ ID NO: 116 (protein, listed as Pantoea stewartii)
chain: MQPGVYYDISNEEYHAGPGISKSQLDDIAVSPAIFQWRKSAPVDDEKTAALDLGTALHCLLLEPDEFSKRFMIGPEVNRRTNAGKQKEQDFLDMCEQQGITPITHDDNRKLRLMRDSAFAHPVARWMLETEGKAEASIYWNDRDTQILSRCRPDKLITEFSWCVDVKSTADIGKFQKDFYSYRYHVQDAFYSDGYEAQFCEVPTFAFLVVSSSIDCGRYPVQVFIMDQQAKDAGRAEYKRNLTTYAECQARNEWPGIATLSLPYWAKEIRNV

Key:
[1] = tested on: DYNLT1 locus; test: mKate knock-in gene-editing assay, RecE/RecT homologs, DYNLT1 locus; assay type: cell-based, human; settings: HEK293 cells, MCP fusion, n=3
Method: (§1) Transfection HEK293T cells were seeded into 96-well plates (Corning) 12-24 hours prior to transfection at a density of 30,000 cells/well, and 250 ng of total DNA was transfected per well. HeLa and HepG2 cells were seeded into 48-well plates (Corning) one day prior to transfection at a density of 50,000 and 30,000 cells/well respectively, and 400 ng of total DNA was transfected per well. Transfections were performed with Lipofectamine 3000 (Life Technologies) following the manufacturer's instructions.
(§2) Fluorescence-activated cell sorting (FACS) mKate knock-in efficiency was analyzed on a CytoFLEX flow cytometer (Beckman Coulter; Stanford Stem Cell FACS Core). 72 hours after transfection, cells were washed once with PBS and dissociated with TrypLE Express Enzyme (Thermo Fisher Scientific). Cell suspension was then transferred to a 96-well U-bottom plate (Thermo Fisher Scientific) and centrifuged at 300×G for 5 minutes. After removing the supernatant, pelleted cells were resuspended with 50 μl 4% FBS in PBS, and cells were sorted within 30 minutes of preparation.
(§3) 15 different species of microbes having RecE/RecT proteins were selected for a screen of various RecE and RecT proteins across the microbial kingdom (Table 3). Each protein was codon-optimized and synthesized. As previously described for E. coli RecE/RecT based REDIT systems, each protein was fused via E-XTEN linker to the MCP protein with additional nuclear localization signal. mKate knock-in gene-editing assay was used to measure efficiencies at DYNLT1 locus (FIG. 26A, Table 4) and HSP90AA1 locus (FIG. 26B, Table 4).

[2] = tested on: HSP90AA1 locus; test: mKate knock-in gene-editing assay, RecE/RecT homologs, HSP90AA1 locus; assay type: cell-based, human; settings: HEK293 cells, MCP fusion, n=3
Method: as §1, §2, §3

Row | Molecule | Mean mKate+ (%), DYNLT1 [1] [%] | Mean mKate+ (%), HSP90AA1 [2] [%]
1 | B1 | 11.7333 | 8.0733
2 | B2 | 10.4433 | 5.7567
3 | B3 | 4.4667 | 6.0233
4 | B4 | 11.9000 | 7.1200
5 | B5 | 5.6467 | 5.3700
6 | B6 | 5.7200 | 6.2567
7 | B7 | 7.4533 | 6.4867
8 | B8 | 5.4100 | 5.9300
9 | B9 | 10.8267 | 6.4300
10 | B10 | 2.0533 | 6.7467
11 | B11 | 12.0000 | 6.9233
12 | B12 | 9.0533 | 6.2500
13 | B13 | 5.7333 | 7.6567
